Results published in article PMC4598119, “Cancer-Related NEET Proteins Transfer 2Fe-2S Clusters to Anamorsin, a Protein Required for Cytosolic Iron-Sulfur Cluster Biogenesis” (PLoS ONE, 2015).

Experiments:
[1] = molecular target: T1, apo-Anamorsin (cytokine induced apoptosis inhibitor-1), biotinylated (human, UniProt Q6FI81 1-312, biotin (EZ-Link Sulfo-NHS-LC-biotin, 2:1 molar ratio of reagent to protein)); assay: BLI; Octet Red96; biotinylated apo-Anamorsin (3.5 uM) immobilised on streptavidin biosensors; holo-NEET in solution; 50 mM bis-tris, 100 mM NaCl, 0.1% Tween 20, 0.5 mg/ml BSA, pH 7.0, without DTT; association 900 s, dissociation 1800 s; 1:1 model; conditions: both partners purified
T1 construct: Anamorsin (CIAPIN-1), human cDNA (Abgent) subcloned into pET28-a(+) between NdeI and XhoI; Without clusters; The vector adds a 6x his-tag and a thrombin cleavage site at the N-terminus; no cleavage is described; also called CIAPIN-1; source: E. coli BL-21 Codon Plus (DE3) RIL, purified (Ni-NTA, HiTrap Q anion exchange); 2Fe-2S cluster removed by the method of Kennedy and Beinert

[2] = molecular target: T2, holo-Anamorsin (prepared via cluster transfer from NAF-1), biotinylated (human, UniProt Q6FI81 1-312, biotin); assay: BLI; biotinylated holo-Anamorsin (prepared via cluster transfer) immobilised on streptavidin biosensors; 16 uM holo-NAF-1 or 32 uM holo-mNT; association 900 s, dissociation 1800 s; 2:1 heterogeneous ligand model; average of two trials; conditions: both partners purified
T2 construct: Anamorsin (CIAPIN-1), human cDNA (Abgent) subcloned into pET28-a(+) between NdeI and XhoI; same chain as m3; also called post-cluster transfer Anamorsin; CIAPIN-1; source: E. coli BL-21 Codon Plus (DE3) RIL, purified; apo form loaded by cluster transfer from NAF-1, then purified from NAF-1 on HiTrap Q anion exchange
T2 sequence (Q6FI81 whole entry): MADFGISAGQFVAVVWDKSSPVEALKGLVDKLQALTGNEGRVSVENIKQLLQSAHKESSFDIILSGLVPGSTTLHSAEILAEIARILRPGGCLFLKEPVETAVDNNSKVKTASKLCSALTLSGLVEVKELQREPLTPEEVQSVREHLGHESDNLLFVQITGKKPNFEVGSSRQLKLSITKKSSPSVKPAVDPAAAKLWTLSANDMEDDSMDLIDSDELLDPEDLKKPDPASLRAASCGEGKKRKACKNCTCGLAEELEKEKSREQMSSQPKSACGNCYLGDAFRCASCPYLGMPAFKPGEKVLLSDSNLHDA

T1 sequence (Q6FI81 whole entry): as above

B1: nutrient-deprivation autophagy factor-1 (NAF-1), soluble domain (residues 57-135), holo (domain or fragment, human, UniProt Q8N5K1 57-135, looked up)
chain: RPFLPKKKQQKDSLINLKIQKENPKVVNEINIEDLCLTKAAYCRCWRSKTFPACDGSHNKHNELTGDNVGPLILKKKEV
notes: NAF-1 (CISD2), human, soluble domain, residues 57-135; Homodimer; each protomer holds one 2Fe-2S cluster (3Cys:1His); at least 98% cluster occupancy; also called holo-NAF-1; miner1; source: expressed and purified as described previously [19, 23]
- koff [1]: 0.0011 s⁻¹
- kon [1]: 783 M⁻¹ s⁻¹

B2: mitoNEET (mNT), soluble domain (residues 33-108), holo (domain or fragment, human, UniProt Q9NZ45 33-108, looked up)
chain: RFYVKDHRNKAMINLHIQKDNPKIVHAFDMEDLGDKAVYCRCWRSKKFPFCDGAHTKHNEETGDNVGPLIIKKKET
notes: mitoNEET (CISD1), human, soluble domain, residues 33-108; Homodimer; each protomer holds one 2Fe-2S cluster (3Cys:1His); at least 98% cluster occupancy; also called holo-mNT; CISD1; source: expressed and purified as described previously [19, 23]
- fold change of koff against apo-Anamorsin [2]: 50 fold
- koff [1]: 6.17e-05 s⁻¹
- kon [1]: 317 M⁻¹ s⁻¹
